# Measured values reported in the supplement of paper PMC7125110.
# ± gives the standard error. Variants at the floor of the assay were thinned out.
# B1: glmS ribozyme (parent)
# chain: AUAAAAGCGCCAGAACUACAGAAAUGUAGUUGACGAGGAGGAGGUUUAUCGAAUUUUCGGCGGAUGCCUCCAAA
# Legend:
# Conditions in all cases: with glucosamine-6-phosphate
# glucosamine-6-phosphate [1] = variants of: B1; assay: self-cleavage kobs at 40 uM GlcN6P; higher = faster cleavage; RNA array
# How it was run: (§1)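 Barcoded glmS ribozyme variants on sequenced MiSeq chips were transcribed in situ by E. coli RNA polymerase and tracked through a hybridised Cy3 probe at 37 °C. Glucosamine-6-phosphate (40 μM to 10 mM) in HEPES/KCl/Mg(OAc)2 buffer was flowed in, and tiles were imaged over ~14 h. Signals were normalised to baseline and to non-cleaving reference variants; per-tile medians were fit to one- or two-exponential decays to give kobs. kcat and KM came from weighted Michaelis–Menten fits across concentrations.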
# glucosamine-6-phosphate [2] = variants of: B1; assay: self-cleavage kobs at 160 uM GlcN6P; higher = faster cleavage; RNA array
# How it was run: as §1
# glucosamine-6-phosphate [3] = variants of: B1; assay: self-cleavage kobs at 640 uM GlcN6P; higher = faster cleavage; RNA array
# How it was run: as §1
# glucosamine-6-phosphate [4] = variants of: B1; assay: self-cleavage kobs at 2500 uM GlcN6P; higher = faster cleavage; RNA array
# How it was run: as §1
# glucosamine-6-phosphate [5] = variants of: B1; assay: self-cleavage kobs at 10000 uM GlcN6P; higher = faster cleavage; RNA array
# How it was run: as §1
Variant,self-cleavage kobs at 40 uM GlcN6P (glucosamine-6-phosphate [1]) [s⁻¹],self-cleavage kobs at 160 uM GlcN6P (glucosamine-6-phosphate [2]) [s⁻¹],self-cleavage kobs at 640 uM GlcN6P (glucosamine-6-phosphate [3]) [s⁻¹],self-cleavage kobs at 2500 uM GlcN6P (glucosamine-6-phosphate [4]) [s⁻¹],self-cleavage kobs at 10000 uM GlcN6P (glucosamine-6-phosphate [5]) [s⁻¹]
A39U C70U,0.000786 ± 6.4e-05,0.00158 ± 0.00038,0.00436 ± 0.00059,0.0108 ± 0.0033,0.0395 ± 0.0076
G37U G59A,< 1e-05,–,< 1e-05,–,–
G37A U49A,< 1e-05,–,< 1e-05,< 1e-05,–
G35U A48U,< 1e-05,< 1e-05,< 1e-05,–,< 1e-05
A33G G40U G59U,< 1e-05,< 1e-05,< 1e-05,< 1e-05,–
G38C G41U G60C,< 1e-05,–,–,–,–
G38U U56G C61A C68G,0.000276 ± 7.7e-05,–,–,–,6.19e-05 ± 2.1e-05
G32U A48U C61U G63U C67U,< 1e-05,–,< 1e-05,–,< 1e-05
G32C U45C U69A,< 1e-05,–,–,–,–
G32C A53U G66U,< 1e-05,–,–,–,–
G35C A39C U49A A53U,< 1e-05,–,–,–,–
G38U U69G,0.000121 ± 1.9e-05,–,9.8e-05 ± 4.7e-05,7.1e-05 ± 1.6e-05,4.47e-05 ± 9.9e-06
A36C G63A,< 1e-05,–,< 1e-05,–,–
C34G A64C U65A,< 1e-05,–,–,–,–
C34A A52U,< 1e-05,–,< 1e-05,–,< 1e-05
A39G G40A A53C,3.7e-05 ± 1.8e-05,–,–,–,0.00139 ± 0.00041
G38U G66C,< 1e-05,–,< 1e-05,–,–
G38U U46A,< 1e-05,< 1e-05,–,< 1e-05,–
A36G A39G,< 1e-05,< 1e-05,< 1e-05,–,–
G37U C71U,< 1e-05,–,< 1e-05,–,–
A36U G37C G41C U55G,< 1e-05,–,< 1e-05,–,< 1e-05
G37A C61U,< 1e-05,–,< 1e-05,< 1e-05,–
G32C G37C C58U,< 1e-05,–,–,–,–

Variant,self-cleavage kobs at 40 uM GlcN6P (glucosamine-6-phosphate [1]) [s⁻¹],self-cleavage kobs at 160 uM GlcN6P (glucosamine-6-phosphate [2]) [s⁻¹],self-cleavage kobs at 640 uM GlcN6P (glucosamine-6-phosphate [3]) [s⁻¹],self-cleavage kobs at 2500 uM GlcN6P (glucosamine-6-phosphate [4]) [s⁻¹],self-cleavage kobs at 10000 uM GlcN6P (glucosamine-6-phosphate [5]) [s⁻¹]
G35U A53U C61G C68G,0.000579 ± 0.00022,–,–,–,0.000516 ± 0.0002
C34A A64C,< 1e-05,–,< 1e-05,< 1e-05,< 1e-05
C34A A64U,< 1e-05,< 1e-05,< 1e-05,–,< 1e-05
G32U C61G,< 1e-05,–,< 1e-05,–,–
A39C C50G U55C,< 1e-05,–,–,–,< 1e-05
G38U G60A,< 1e-05,–,–,–,–
G35A C71U,< 1e-05,< 1e-05,< 1e-05,< 1e-05,< 1e-05
G35A G44U U49A,< 1e-05,–,–,–,–
G38C A48U U65A,< 1e-05,–,–,–,–
G32U U49C,< 1e-05,< 1e-05,< 1e-05,< 1e-05,–
G38A U46G,< 1e-05,< 1e-05,< 1e-05,< 1e-05,< 1e-05
C34U U57C,< 1e-05,< 1e-05,< 1e-05,< 1e-05,< 1e-05
G35A G59C,< 1e-05,< 1e-05,< 1e-05,< 1e-05,< 1e-05
G37C U46C,< 1e-05,–,–,–,–
G35C U46G A48G U65C C68A,< 1e-05,–,–,–,–
G35U G41U,< 1e-05,< 1e-05,–,< 1e-05,< 1e-05
A33U G43A,< 1e-05,< 1e-05,< 1e-05,< 1e-05,< 1e-05
G37U G38A A42C,< 1e-05,–,< 1e-05,< 1e-05,< 1e-05
A39G G59U,< 1e-05,< 1e-05,–,–,5.72e-05 ± 9.8e-06
G38U C70G,2.71e-05 ± 1e-05,0.000289 ± 9.3e-05,0.000298 ± 0.00014,–,–
G35U G63U,< 1e-05,< 1e-05,< 1e-05,< 1e-05,< 1e-05
A33C G43C,< 1e-05,< 1e-05,< 1e-05,< 1e-05,< 1e-05
